Molecular target: Recombinant MDP1 (Mycobacterial DNA-binding protein 1) of M. tuberculosis produced in Escherichia coli (Mycobacterium tuberculosis) (UniProt P9WMK7)
Assay: cross-linking; glutaraldehyde 0.2%, room temperature, 30 min; 4 µM or 8 µM protein in 150-1500 mM NaCl; SDS-PAGE on a 4-15% gradient gel

“Recombinant MDP1 (Mycobacterial DNA-binding protein 1) of M. tuberculosis produced in Escherichia coli (from UniProt P9WMK7 3-216) (natural protein)” showed a stoichiometry N of 2.

— paper PMC11033290
